B1: Transient receptor potential cation channel subfamily M member 7 (Mus musculus), Q923J1 (parent)
chain: MSQKSWIESTLTKRECVYIIPSSKDPHRCLPGCQICQQLVRCFCGRLVKQHACFTASLAMKYSDVKLGEHFNQAIEEWSVEKHTEQSPTDAYGVINFQGGSHSYRAKYVRLSYDTKPEIILQLLLKEWQMELPKLVISVHGGMQKFELHPRIKQLLGKGLIKAAVTTGAWILTGGVNTGVAKHVGDALKEHASRSSRKICTIGIAPWGVIENRNDLVGRDVVAPYQTLLNPLSKLNVLNNLHSHFILVDDGTVGKYGAEVRLRRELEKTINQQRIHARIGQGVPVVALIFEGGPNVILTVLEYLQESPPVPVVVCEGTGRAADLLAYIHKQTEEGGNLPDAAEPDIISTIKKTFNFGQSEAVHLFQTMMECMKKKELITVFHIGSEDHQDIDVAILTALLKGTNASAFDQLILTLAWDRVDIAKNHVFVYGQQWLVGSLEQAMLDALVMDRVSFVKLLIENGVSMHKFLTIPRLEELYNTKQGPTNPMLFHLIRDVKQGNLPPGYKITLIDIGLVIEYLMGGTYRCTYTRKRFRLIYNSLGGNNRRSGRNTSSSTPQLRKSHETFGNRADKKEKMRHNHFIKTAQPYRPKMDASMEEGKKKRTKDEIVDIDDPETKRFPYPLNELLIWACLMKRQVMARFLWQHGEESMAKALVACKIYRSMAYEAKQSDLVDDTSEELKQYSNDFGQLAVELLEQSFRQDETMAMKLLTYELKNWSNSTCLKLAVSSRLRPFVAHTCTQMLLSDMWMGRLNMRKNSWYKVILSILVPPAILMLEYKTKAEMSHIPQSQDAHQMTMEDSENNFHNITEEIPMEVFKEVKILDSSDGKNEMEIHIKSKKLPITRKFYAFYHAPIVKFWFNTLAYLGFLMLYTFVVLVKMEQLPSVQEWIVIAYIFTYAIEKVREVFMSEAGKISQKIKVWFSDYFNVSDTIAIISFFVGFGLRFGAKWNYINAYDNHVFVAGRLIYCLNIIFWYVRLLDFLAVNQQAGPYVMMIGKMVANMFYIVVIMALVLLSFGVPRKAILYPHEEPSWSLAKDIVFHPYWMIFGEVYAYEIDVCANDSTLPTICGPGTWLTPFLQAVYLFVQYIIMVNLLIAFFNNVYLQVKAISNIVWKYQRYHFIMAYHEKPVLPPPLIILSHIVSLFCCVCKRRKKDKTSDGPKLFLTEEDQKKLHDFEEQCVEMYFDEKDDKFNSGSEERIRVTFERVEQMSIQIKEVGDRVNYIKRSLQSLDSQIGHLQDLSALTVDTLKTLTAQKASEASKVHNEITRELSISKHLAQNLIDDVPVRPLWKKPSAVNTLSSSLPQGDRESNNPFLCNIFMKDEKDPQYNLFGQDLPVIPQRKEFNIPEAGSSCGALFPSAVSPPELRQRRHGVEMLKIFNKNQKLGSSPNSSPHMSSPPTKFSVSTPSQPSCKSHLESTTKDQEPIFYKAAEGDNIEFGAFVGHRDSMDLQRFKETSNKIRELLSNDTPENTLKHVGAAGYSECCKTSTSLHSVQAESCSRRASTEDSPEVDSKAALLPDWLRDRPSNREMPSEGGTLNGLASPFKPVLDTNYYYSAVERNNLMRLSQSIPFVPVPPRGEPVTVYRLEESSPSILNNSMSSWSQLGLCAKIEFLSKEEMGGGLRRAVKVLCTWSEHDILKSGHLYIIKSFLPEVINTWSSIYKEDTVLHLCLREIQQQRAAQKLTFAFNQMKPKSIPYSPRFLEVFLLYCHSAGQWFAVEECMTGEFRKYNNNNGDEIIPTNTLEEIMLAFSHWTYEYTRGELLVLDLQGVGENLTDPSVIKAEEKRSCDMVFGPANLGEDAIKNFRAKHHCNSCCRKLKLPDLKRNDYTPDKIIFPQDESSDLNLQSGNSTKESEATNSVRLML

Variants of: B1
Settings: with myh9_mouse Myh9, Q8VDD5
myh9_mouse Myh9, Q8VDD5, sequence (Q8VDD5 whole entry): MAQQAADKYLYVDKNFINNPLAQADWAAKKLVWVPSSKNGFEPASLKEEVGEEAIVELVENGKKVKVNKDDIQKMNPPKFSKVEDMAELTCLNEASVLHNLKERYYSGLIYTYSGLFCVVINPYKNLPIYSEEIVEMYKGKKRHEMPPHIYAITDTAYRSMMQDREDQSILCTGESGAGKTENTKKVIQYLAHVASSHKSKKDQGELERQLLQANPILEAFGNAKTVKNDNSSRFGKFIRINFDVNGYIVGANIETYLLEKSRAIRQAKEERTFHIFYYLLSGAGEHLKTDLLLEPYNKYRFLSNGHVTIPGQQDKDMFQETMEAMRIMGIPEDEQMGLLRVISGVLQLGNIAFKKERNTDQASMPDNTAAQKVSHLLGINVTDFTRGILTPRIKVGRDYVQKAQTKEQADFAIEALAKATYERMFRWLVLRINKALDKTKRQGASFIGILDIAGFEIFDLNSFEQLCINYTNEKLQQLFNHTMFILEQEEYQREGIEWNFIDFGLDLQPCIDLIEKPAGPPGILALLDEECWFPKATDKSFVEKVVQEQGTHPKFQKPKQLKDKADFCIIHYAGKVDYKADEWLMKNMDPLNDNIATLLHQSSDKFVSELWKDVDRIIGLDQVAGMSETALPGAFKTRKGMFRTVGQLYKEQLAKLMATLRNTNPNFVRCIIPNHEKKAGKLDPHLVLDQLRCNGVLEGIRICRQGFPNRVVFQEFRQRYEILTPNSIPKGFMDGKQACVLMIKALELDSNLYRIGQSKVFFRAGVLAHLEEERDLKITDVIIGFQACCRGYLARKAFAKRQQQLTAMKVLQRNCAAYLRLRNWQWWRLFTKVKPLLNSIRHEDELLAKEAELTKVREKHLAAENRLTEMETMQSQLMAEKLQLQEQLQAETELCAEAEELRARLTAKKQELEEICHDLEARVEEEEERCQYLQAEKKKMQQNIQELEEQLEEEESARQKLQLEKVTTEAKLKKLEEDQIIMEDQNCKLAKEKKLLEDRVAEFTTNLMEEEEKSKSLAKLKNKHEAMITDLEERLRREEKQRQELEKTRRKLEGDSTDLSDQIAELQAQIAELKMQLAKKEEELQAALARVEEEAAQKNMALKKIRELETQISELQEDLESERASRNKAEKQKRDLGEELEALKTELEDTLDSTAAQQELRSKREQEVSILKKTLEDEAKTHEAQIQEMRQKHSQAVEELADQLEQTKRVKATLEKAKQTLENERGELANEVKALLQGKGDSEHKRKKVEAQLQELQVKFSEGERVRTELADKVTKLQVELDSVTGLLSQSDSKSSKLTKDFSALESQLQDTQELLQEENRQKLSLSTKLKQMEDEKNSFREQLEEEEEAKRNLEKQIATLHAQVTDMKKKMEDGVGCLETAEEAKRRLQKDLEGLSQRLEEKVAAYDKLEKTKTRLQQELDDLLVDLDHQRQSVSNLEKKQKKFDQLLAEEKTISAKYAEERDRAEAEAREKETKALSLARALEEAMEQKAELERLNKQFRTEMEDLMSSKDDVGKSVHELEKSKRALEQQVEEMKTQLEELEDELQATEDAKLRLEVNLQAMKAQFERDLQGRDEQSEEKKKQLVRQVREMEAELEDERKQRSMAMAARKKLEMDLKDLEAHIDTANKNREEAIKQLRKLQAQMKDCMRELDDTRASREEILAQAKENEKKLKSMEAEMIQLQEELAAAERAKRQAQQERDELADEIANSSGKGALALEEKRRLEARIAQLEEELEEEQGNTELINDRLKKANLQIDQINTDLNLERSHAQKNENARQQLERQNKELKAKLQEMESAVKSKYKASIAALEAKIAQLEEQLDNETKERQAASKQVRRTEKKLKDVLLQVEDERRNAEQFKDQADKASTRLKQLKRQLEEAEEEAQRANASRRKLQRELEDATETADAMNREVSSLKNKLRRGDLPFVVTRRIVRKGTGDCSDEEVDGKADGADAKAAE

Variant | effect of a mutation on the interaction
D1775A | decreasing interaction
